Values of other authors as cited in paper PMC10105536.
Values joined by “and” are separate entries in the source; they are usually repeats but may differ in a detail not shown here. Identical values can stand only once.

Molecular target: EGFR (Homo sapiens) (UniProt P00533)

Kd: 0.3 nM and 2 nM
Substance: EGF (from UniProt P01133)
